This is an account of results in patent US9035028B2, “Temperature sensitive conjugate compositions” (Emory University, priority 2010, dated 2015).

For data set [1], the system named is activated human platelets. The data set can be described thus: Microscopic analysis of platelet aggregates. In kind it is cell-based. Conditions: both temperatures (22° C. and 37° C.). As for the experimental part: For the microscopic analysis of platelet aggregates at different temperatures, non-diluted human PRP was placed onto a glass slide and ADP was added to a final concentration of 20 μM, in the presence and absence of EMP-scFv (50 μg/mL). Abciximab was used as a positive control at a concentration of 10 μg/mL. The experiments were conducted at 22° C. and 37° C. Phase contrast microscopy images were taken using an Olympus CKX41 microscope.

Data set [2] concerns the target T1, αv/β3 integrins on vascular cells (Homo sapiens, UniProt P05106+P06756).
T1 construct: host or cells: vascular cells (not specified)
Conditions: cited from earlier work.

In data set [3] the target is T2, GPIIb/IIIa (integrin alphaIIb beta3) on human platelets (human, UniProt P08514 32-1039; P05106 27-788).
T2 construct: whole, on cells; also called GPIIb/IIIa receptor; glycoprotein IIb/IIIa
Nature of the data set: flow cytometry, resting and ADP-activated human platelets, 22° C., 32° C. and 37° C. For orientation: A flow cytometer gives signals particle by particle.

Data set [4] can be described thus: Circular dichroism (CD) spectra and thermal transition profile. In kind it is physicochemical. How it is done:
The mathematical fitting of the CD data allowed the determination of the transition temperature (Tt) resulting from conformational change of EMP as the temperature is increased. The mathematical fitting of the CD data to the van't Hoff equation allowed the determination of the transition temperature (Tt) resulting from conformational change of EMP and EMP-scFv as the temperature is increased.
Circular dichroism (CD) spectra were recorded on a Jasco J-810 spectropolarimeter equipped with a PFD-425S Peltier temperature control unit in 0.1 cm sealed quartz cells at concentrations of 7.5 μM (EMP), 8.4 μM (scFv) and 4.1 μM (EMP-scFv) in 50 mM sodium phosphate buffer, pH 7.4. Temperature/wavelength CD-scans were performed within the temperature range from 5° C. to 35° C. with equilibration for 10 min at each temperature. Spectra were obtained from 260 to 190 nm at a resolution of 0.5 nm and at a scanning speed of 50 nm/min. The CD curves represented the average of five measurements and were smoothed using the means-movement method on the interval analysis of the spectral manager program. CD data are reported as mean residue ellipticity ([θ], deg cm^2 dmol^−1). Thermal transition curves were plotted by the mean residue ellipticity as a function of temperature for the disappearance of the random coil and the appearance of the β-turn structure.

For data set [5], the target named is T3, GPIIb/IIIa on human platelets (Homo sapiens, UniProt P05106+P08514).
T3 construct: endogenous in cells
The data set can be described thus: Flow cytometry: binding to human platelets. Conditions: regardless of the temperature. How it is done: Human blood was collected by venipuncture with a 21-gauge butterfly needle from healthy volunteers and anticoagulated with citric acid. Platelet-rich plasma (PRP) was obtained by centrifugation (GS-6R centrifuge, Beckman Coulter) at 100×g at room temperature for 10 min.
Human PRP was diluted 1/50 in modified Tyrode's buffer containing 2 mM MgCl2 and 2 mM CaCl2. Platelets were either activated by addition of 20 μM ADP, or non activated, followed by the incubation with 15 and 50 μg/mL EMP-scFv fusion protein or EMP at 22° C., 32° C. and at 37° C. for 15 min. Mouse platelets were either pre-activated for 10 min by addition of 0.1 U/mL thrombin (Enzyme Research Laboratories), or non activated, before the incubation with 15 and 50 μg/mL of EMP-scFv fusion protein at 22° C., 32° C. or 37° C. for 15 min. In both, human and mouse samples, EMP-scFv was detected via 15 min in-dark incubation with secondary antibody (Penta-His Alexa Fluor 488, Qiagen) directed against the His(6)-tag of the single-chain antibody.
In re-warming experiments, activated and non-activated diluted human PRP was incubated with 15 and 50 μg/mL of EMP-scFv for 15 minutes at 22° C., followed by a 15-min in dark incubation with secondary Penta-His Alexa Fluor 488 antibody. Half of the reaction was then fixed with 1× Cell FIX, while the other half was incubated at 37° C. for either 15 or 30 minutes, before being fixed and measured in FACS.

The conditions of data set [6]: in contrast to conformation unspecific GPIIb/IIIa inhibitors; cited from earlier work.
Data set [7] deals with GPIIb/IIIa (Homo sapiens, UniProt P05106+P08514). The data set can be described thus: Specificity of scFv (studies in applicant's laboratory). It is filed as binding.

Where a SMILES comes first, the peptide text is derived from it. Bridges are numbered along the chain shown (N, C = ends). [ ]: non-standard residue; d: D form. hArg = N=C(N)NCCCC[C@H](N)C(=O)O; Mpa = O=C(O)CCS

T1 sequence (P06756 31-889 limits assumed): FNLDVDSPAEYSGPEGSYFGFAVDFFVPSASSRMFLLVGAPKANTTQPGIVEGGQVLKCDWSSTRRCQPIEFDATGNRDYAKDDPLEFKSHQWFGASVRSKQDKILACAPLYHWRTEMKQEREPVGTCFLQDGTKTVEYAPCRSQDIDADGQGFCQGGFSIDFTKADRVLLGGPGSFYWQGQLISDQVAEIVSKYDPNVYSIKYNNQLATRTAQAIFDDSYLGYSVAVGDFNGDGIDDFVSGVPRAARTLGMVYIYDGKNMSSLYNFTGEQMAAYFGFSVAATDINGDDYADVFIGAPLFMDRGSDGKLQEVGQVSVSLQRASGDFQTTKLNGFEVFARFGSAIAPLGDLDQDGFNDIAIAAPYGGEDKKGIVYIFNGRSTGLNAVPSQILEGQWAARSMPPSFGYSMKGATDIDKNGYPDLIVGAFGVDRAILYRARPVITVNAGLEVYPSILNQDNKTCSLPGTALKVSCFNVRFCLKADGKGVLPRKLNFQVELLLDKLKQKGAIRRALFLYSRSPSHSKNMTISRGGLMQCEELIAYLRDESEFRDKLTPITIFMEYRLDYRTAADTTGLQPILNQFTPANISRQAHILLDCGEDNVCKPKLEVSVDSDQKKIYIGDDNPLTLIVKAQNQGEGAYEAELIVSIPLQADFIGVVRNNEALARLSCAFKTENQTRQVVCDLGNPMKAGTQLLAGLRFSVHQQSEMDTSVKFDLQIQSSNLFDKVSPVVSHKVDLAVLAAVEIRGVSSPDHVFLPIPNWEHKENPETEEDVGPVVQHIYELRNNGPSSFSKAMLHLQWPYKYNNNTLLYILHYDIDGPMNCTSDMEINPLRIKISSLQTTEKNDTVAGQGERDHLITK
T1 sequence (P06756 891-1048 partner limits assumed): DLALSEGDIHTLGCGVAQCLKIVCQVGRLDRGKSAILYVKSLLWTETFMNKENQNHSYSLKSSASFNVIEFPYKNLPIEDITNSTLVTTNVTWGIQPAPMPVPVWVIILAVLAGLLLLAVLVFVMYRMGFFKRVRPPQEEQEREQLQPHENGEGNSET
T1 sequence (P05106 27-788): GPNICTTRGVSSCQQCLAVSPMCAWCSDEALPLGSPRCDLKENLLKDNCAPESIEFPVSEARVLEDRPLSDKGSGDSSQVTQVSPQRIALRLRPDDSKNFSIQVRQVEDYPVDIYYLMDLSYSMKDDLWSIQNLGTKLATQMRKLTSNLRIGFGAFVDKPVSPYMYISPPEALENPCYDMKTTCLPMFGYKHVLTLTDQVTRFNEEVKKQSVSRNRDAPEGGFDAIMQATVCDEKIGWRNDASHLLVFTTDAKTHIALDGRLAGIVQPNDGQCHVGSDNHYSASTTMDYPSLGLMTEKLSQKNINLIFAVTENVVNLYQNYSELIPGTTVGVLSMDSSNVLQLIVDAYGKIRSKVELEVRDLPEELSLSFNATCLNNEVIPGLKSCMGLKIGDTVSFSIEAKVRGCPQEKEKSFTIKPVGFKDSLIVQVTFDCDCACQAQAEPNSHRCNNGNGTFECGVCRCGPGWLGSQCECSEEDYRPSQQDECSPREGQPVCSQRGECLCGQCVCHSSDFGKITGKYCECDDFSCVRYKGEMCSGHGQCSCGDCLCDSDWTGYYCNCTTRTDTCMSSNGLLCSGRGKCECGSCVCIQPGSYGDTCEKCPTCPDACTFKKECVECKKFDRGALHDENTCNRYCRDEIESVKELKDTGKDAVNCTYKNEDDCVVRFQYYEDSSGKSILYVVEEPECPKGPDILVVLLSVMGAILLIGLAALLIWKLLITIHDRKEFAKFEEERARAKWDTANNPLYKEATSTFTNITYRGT

Consider abciximab [reference compound], for which the “aggregation of activated human platelets (microscopy)” value in data set [1] is “abolishes aggregation”. In addition, the “ligand binding to αv/β3 integrins on vascular cells” value in data set [2] is “antagonize ligand binding”. Take `N=C(N)NCCCC[C@@H]1NC(=O)CCSSC[C@@H](C(N)=O)NC(=O)[C@@H]2CCCN2C(=O)[C@H](Cc2c[nH]c3ccccc23)NC(=O)[C@H](CC(=O)O)NC(=O)CNC1=O` [eptifibatide] ([Mpa][hArg]GDWPC-NH2; disulfide 1-7): in data set [2], the “ligand binding to αv/β3 integrins on vascular cells” value is reported as “antagonize ligand binding”.

B1: EMP alone (elastin-mimetic polypeptide without scFv) (other)
chain: MAVPAVGIPAVGIPAVGIPAVGIPAVGIPAVGIPAVGIPAVGIPAVGIPAVGIPAVGIPAVGIPAVGIPAVGIPAVGIPAVGIPAVGIPAVGIPAVGIPAVGIPAVGIPAVGIPAVGIPAVGIPAVGIPAVGIPAVGIPAVGIPAVGIPAVGIPAVGIPAVGIPAVGIPAVGIPAVGIPAVGIPAVGIPAVGIPAVGIPAVGIPAVGIPAVGIPAVGIPAVGIPAVGIPAVGIPAVGIPAVGIPAVGIPAVGIPAVGIPAVGIPAVGIPAVGIPAVGIPAVGIPAVGIPAVGIPAVGIPAVGIPAVGIPAVGIPAVGIPAVGIPAVGIPAVGIPAVGIPAVGIPAVGIPAVGIPAVGIPAVGIPAVGIPAVGIPAVGIPAVGIPAVGIPAVGIPAVGIPAVGIP
B1: the binding result in data set [3] was “no binding (tested: 15 and 50 µg/mL)”.

B2: EMP: elastin mimetic polypeptide, sixteen repeats of monomer (IPAVG)5, SEQ ID NO: 11, approximately 35 kDa (protein)
chain: B1 chain
As for B2, the “transition temperature (Tt)” value in data set [4] (CD data at 198 and 220 nm, van't Hoff fit) is “approximately 26 °C”. Further, the “binding to resting or activated platelets” value in data set [5] was “did not bind”.

B3: scFv: activation-specific GPIIb/IIIa-blocking single-chain antibody, SEQ ID NO: 13 (protein)
scFv: MAEVQLVESGGGLVQPGGSLRLSCAASGFMFSRYAMSWVRQAPGKGPEWVSGISGSGGSTYYADSVKGRFTVSRDNSKNTLYLQMNSLRAEDTAVYYCARIFTHRSRGDVPDQTSFDYWGQGTLVTVSSGSASAPKLEEGEFSEARVSSELTQDPAVSVALGQTVRITCQGDSLRNFYASWYQQKPGQAPTLVIYGLSKRPSGIPDRFSASSSGNTASLTITGAQAEDEADYYCLLYYGGGQQGVFGGGTKLTVLRQPKAAPSVTLFPPSSAAAGSEQKLISEEDLNS
Turning to B3, the “conformational changes in CD” value in data set [4] (temperature increased up to 35° C.) was “No significant conformational changes”. Besides, the bleeding time result in data set [6] is reported as “does not prolong bleeding time”. Further, in data set [7], the specificity of binding entry was “GPIIb/IIIa-specific and binds to activated platelets exclusively”.
